Test results taken from PMC3215729, “Rv2607 from Mycobacterium tuberculosis Is a Pyridoxine 5′-Phosphate Oxidase with Unusual Substrate Specificity” (PLoS ONE, 2011).

Target: the molecule itself
Assay: native MS

B1: Rv2607 from Mycobacterium tuberculosis H37Rv, amino-terminal 6x-histidine tag fusion protein (enzyme)
chain: MDDDAQMVAIDKDQLARMRGEYGPEKDGCGDLDFDWLDDGWLTLLRRWLNDAQRAGVSEPNAMVLATVADGKPVTRSVLCKILDESGVAFFTSYTSAKGEQLAVTPYASATFPWYQLGRQAHVQGPVSKVSTEEIFTYWSMRPRGAQLGAWASQQSRPVGSRAQLDNQLAEVTRRFADQDQIPVPPGWGGYRIAPEIVEFWQGRENRMHNRIRVANGRLERLQP
notes: also called PNPOx; pyridoxine 5'-phosphate oxidase; not shown: His6, N-terminal, kept
- stoichiometry N: 2
